B1: APP-Fc (APP695 extracellular domain, residues 1-596, fused to the constant region of human IgG) (Fc fusion, UniProt P12023-2 18-596, looked up)
chain: LEVPTDGNAGLLAEPQIAMFCGKLNMHMNVQNGKWESDPSGTKTCIGTKEGILQYCQEVYPELQITNVVEANQPVTIQNWCKRGRKQCKTHTHIVIPYRCLVGEFVSDALLVPDKCKFLHQERMDVCETHLHWHTVAKETCSEKSTNLHDYGMLLPCGIDKFRGVEFVCCPLAEESDSVDSADAEEDDSDVWWGGADTDYADGGEDKVVEVAEEEEVADVEEEEADDDEDVEDGDEVEEEAEEPYEEATERTTSTATTTTTTTESVEEVVRVPTTAASTPDAVDKYLETPGDENEHAHFQKAKERLEAKHRERMSQVMREWEEAERQAKNLPKADKKAVIQHFQEKVESLEQEAANERQQLVETHMARVEAMLNDRRRLALENYITALQAVPPRPHHVFNMLKKYVRAEQKDRQHTLKHFEHVRMVDPKKAAQIRSQVMTHLRVIYERMNQSLSLLYNVPAVAEEIQDEVDELLQKEQNYSDDVLANMISEPRISYGNDALMPSLTETKTTVELLPVNGEFSLDDLQPWHPFGVDSVPANTENEVEPVDARPAADRGLTTRPGSGLTNIKTEEISEVKM

Tests used:
[1] = biological target: B1; experiment: pull-down; 100 ng purified APP-Fc on Protein A-agarose beads, incubated with 100 ng purified MBP-LRP4LBD and 0-1000 ng neuronal agrin in PBS with 0.1% BSA, 4 hr, 4°C; immunoblot with anti-MBP, anti-agrin, anti-Fc; conditions: both partners purified
[2] = biological target: LRP4 (endogenous, mouse embryonic muscle) (mouse (endogenous in embryonic muscle), UniProt Q8VI56 21-1905); experiment: cell-based or functional assay
Sequence of LRP4 (endogenous, mouse embryonic muscle) (Q8VI56 21-1905): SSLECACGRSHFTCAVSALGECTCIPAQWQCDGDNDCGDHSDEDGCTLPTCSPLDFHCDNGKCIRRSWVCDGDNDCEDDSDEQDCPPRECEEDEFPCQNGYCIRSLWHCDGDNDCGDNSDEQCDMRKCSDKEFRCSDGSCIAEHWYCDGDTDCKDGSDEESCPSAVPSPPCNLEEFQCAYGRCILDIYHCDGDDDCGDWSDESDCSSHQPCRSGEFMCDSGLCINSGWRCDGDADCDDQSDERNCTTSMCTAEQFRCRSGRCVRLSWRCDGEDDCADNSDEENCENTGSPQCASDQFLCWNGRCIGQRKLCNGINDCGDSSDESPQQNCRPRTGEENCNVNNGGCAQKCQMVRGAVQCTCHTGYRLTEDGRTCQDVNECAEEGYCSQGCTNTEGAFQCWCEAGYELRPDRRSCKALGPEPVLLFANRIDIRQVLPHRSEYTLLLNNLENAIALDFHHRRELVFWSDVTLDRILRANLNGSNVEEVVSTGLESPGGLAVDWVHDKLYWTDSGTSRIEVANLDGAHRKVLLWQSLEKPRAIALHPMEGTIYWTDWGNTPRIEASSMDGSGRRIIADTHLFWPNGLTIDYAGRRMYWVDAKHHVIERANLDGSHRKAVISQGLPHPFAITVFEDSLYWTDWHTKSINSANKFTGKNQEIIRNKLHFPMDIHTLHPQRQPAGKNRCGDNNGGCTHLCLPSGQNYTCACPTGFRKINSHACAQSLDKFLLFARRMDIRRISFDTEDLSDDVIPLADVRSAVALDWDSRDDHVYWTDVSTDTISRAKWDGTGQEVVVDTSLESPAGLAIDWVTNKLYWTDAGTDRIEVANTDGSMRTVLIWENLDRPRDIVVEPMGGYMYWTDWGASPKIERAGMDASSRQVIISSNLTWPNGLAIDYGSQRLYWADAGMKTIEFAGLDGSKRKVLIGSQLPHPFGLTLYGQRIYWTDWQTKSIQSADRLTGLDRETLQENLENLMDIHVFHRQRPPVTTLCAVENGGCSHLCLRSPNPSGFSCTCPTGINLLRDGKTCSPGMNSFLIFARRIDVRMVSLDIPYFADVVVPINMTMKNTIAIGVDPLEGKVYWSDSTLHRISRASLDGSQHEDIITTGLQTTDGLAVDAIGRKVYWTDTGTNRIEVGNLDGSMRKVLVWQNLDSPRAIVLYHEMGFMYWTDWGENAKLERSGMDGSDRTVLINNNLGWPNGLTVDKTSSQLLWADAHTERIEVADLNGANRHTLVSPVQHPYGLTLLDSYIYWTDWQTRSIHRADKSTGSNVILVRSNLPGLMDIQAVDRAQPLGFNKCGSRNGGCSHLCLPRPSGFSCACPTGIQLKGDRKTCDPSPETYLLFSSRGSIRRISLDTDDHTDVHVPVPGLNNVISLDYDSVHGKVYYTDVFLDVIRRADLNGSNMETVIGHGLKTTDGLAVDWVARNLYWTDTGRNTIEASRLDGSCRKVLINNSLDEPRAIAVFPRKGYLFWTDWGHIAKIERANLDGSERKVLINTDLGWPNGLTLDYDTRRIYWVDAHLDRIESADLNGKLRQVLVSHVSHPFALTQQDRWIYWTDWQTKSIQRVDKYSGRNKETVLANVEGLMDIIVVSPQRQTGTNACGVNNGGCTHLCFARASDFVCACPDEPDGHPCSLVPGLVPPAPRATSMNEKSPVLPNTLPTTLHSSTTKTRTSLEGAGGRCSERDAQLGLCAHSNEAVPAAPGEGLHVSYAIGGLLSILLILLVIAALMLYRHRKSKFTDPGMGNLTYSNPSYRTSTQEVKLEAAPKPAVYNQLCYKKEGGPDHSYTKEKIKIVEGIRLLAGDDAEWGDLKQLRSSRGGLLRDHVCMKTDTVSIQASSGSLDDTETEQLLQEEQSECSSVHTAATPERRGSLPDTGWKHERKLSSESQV

| Binder | fold binding against no agrin, with 10 ng/ml agrin [1] | fold binding against no agrin, with 30 ng/ml agrin [1] | MuSK tyrosine phosphorylation in myotubes, APP-Fc alone at 1×, 10× or 100× molar concentrations compared to 0.1 nM agrin (0.1-10 nM), 30 min at 37°C, without agrin [2] |
| --- | --- | --- | --- |
| MBP-LRP4LBD (LRP4 ligand binding domain, aa 27-349, fused to maltose-binding protein) (domain or fragment, mouse, UniProt Q8VI56 27-349, looked up, Species is stated as mouse for the LRP4-Fc construct, not expressly for this one; Vector pMAL-p4x; also called LRP4-MBP; source: E. coli BL21, periplasmic extract, purified on amylose column; not shown: MBP, N-terminal, kept) CGRSHFTCAVSALGECTCIPAQWQCDGDNDCGDHSDEDGCTLPTCSPLDFHCDNGKCIRRSWVCDGDNDCEDDSDEQDCPPRECEEDEFPCQNGYCIRSLWHCDGDNDCGDNSDEQCDMRKCSDKEFRCSDGSCIAEHWYCDGDTDCKDGSDEESCPSAVPSPPCNLEEFQCAYGRCILDIYHCDGDDDCGDWSDESDCSSHQPCRSGEFMCDSGLCINSGWRCDGDADCDDQSDERNCTTSMCTAEQFRCRSGRCVRLSWRCDGEDDCADNSDEENCENTGSPQCASDQFLCWNGRCIGQRKLCNGINDCGDSSDESPQQNC | 1.3 fold | 3 fold | – |
| B1 | – | – | 4.3 fold over baseline |
